Reference: paper PMC10709637, “Phospholipids are imported into mitochondria by VDAC, a dimeric beta barrel scramblase” (Nature Communications, 2023)
Values belong to the binder of their own block, whether it stands above or below them.

Experiments:
[1] = target: the molecule itself; test: cross-linking; EGS cross-linking after reconstitution into LUVs (POPC/POPG) in 10 mM MOPS/KOH pH 7.0, 100 mM KCl; 16x mole excess of EGS, 20 °C, 40 min; SDS-PAGE immunoblot (anti-His for human VDAC, anti-VDAC1/Porin for yeast porin)
[2] = target: T1, human VDAC2 (Voltage Dependent Anion Channel 2), N-terminal hexahistidine tagged (human), P45880; test: vesicle occupancy statistics (Poisson analysis of the dithionite channel assay); different amounts of protein reconstituted into a fixed quantity of LUVs; fraction of vesicles with a channel against PPR*, one-phase exponential fit; MW 31 kDa, vesicle diameter 150 nm; conditions: remark: other sources report otherwise
T1 chain: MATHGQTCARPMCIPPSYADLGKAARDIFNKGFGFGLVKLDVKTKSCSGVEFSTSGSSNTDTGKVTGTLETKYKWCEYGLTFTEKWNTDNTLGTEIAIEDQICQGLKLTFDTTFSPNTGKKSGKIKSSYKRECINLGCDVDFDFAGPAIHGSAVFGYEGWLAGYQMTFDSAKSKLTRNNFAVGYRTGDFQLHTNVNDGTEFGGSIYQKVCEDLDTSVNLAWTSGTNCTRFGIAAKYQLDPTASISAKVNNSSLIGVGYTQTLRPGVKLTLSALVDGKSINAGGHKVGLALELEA

[3] = target: T2, C-terminal Twin-Strep-tagged yeast VDAC (Por1-TS) (S. cerevisiae), P04840; test: cross-linking; EGS cross-linking after reconstitution into LUVs (POPC/POPG) in 10 mM MOPS/KOH pH 7.0, 100 mM KCl; 16x mole excess of EGS, 20 °C, 40 min; SDS-PAGE immunoblot (anti-His for human VDAC, anti-VDAC1/Porin for yeast porin); conditions: remark: other sources report otherwise
T2 chain: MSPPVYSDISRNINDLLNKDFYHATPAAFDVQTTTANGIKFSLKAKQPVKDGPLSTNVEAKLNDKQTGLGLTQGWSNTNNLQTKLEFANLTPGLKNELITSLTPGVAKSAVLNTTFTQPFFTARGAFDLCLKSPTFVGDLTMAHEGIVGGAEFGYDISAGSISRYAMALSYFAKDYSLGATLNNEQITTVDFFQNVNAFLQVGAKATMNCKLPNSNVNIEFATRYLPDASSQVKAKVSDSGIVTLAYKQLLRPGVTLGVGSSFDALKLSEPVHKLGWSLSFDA

B1: human VDAC1 pentamutant VDAC1-5V (T60V, Y62V, E73V, T83V, S101V), N-terminal hexahistidine tagged (natural protein, UniProt P21796 1-283, looked up)
chain: MAVPPTYADLGKSARDVFTKGYGFGLIKLDLKTKSENGLEFTSSGSANTETTKVTGSLEVKVRWTEYGLTFTVKWNTDNTLGVEITVEDQLARGLKLTFDVSFSPNTGKKNAKIKTGYKREHINLGCDMDFDIAGPSIRGALVLGYEGWLAGYQMNFETAKSRVTQSNFAVGYKTDEFQLHTNVNDGTEFGGSIYQKVNKKLETAVNLAWTAGNSNTRFGIAAKYQIDPDACFSAKVNNSSLIGLGYTQTLKPGIKLTLSALLDGKNVNAGGHKLGLGLEFQA
notes: human VDAC1 with five substitutions to valine; pCold vector
- binding result [1]: binds

- stoichiometry N [2]: 10
B2: human VDAC2 (Voltage Dependent Anion Channel 2), N-terminal hexahistidine tagged, P45880 1-294 (natural protein)
chain: T1 chain

- stoichiometry N [3]: 2
B3: C-terminal Twin-Strep-tagged yeast VDAC (Por1-TS), P04840 1-283 (natural protein)
chain: T2 chain
